Target: T1, Estrogen receptor alpha (ERα) (UniProt P03372 1-595, limits assumed)
T1 sequence (looked up): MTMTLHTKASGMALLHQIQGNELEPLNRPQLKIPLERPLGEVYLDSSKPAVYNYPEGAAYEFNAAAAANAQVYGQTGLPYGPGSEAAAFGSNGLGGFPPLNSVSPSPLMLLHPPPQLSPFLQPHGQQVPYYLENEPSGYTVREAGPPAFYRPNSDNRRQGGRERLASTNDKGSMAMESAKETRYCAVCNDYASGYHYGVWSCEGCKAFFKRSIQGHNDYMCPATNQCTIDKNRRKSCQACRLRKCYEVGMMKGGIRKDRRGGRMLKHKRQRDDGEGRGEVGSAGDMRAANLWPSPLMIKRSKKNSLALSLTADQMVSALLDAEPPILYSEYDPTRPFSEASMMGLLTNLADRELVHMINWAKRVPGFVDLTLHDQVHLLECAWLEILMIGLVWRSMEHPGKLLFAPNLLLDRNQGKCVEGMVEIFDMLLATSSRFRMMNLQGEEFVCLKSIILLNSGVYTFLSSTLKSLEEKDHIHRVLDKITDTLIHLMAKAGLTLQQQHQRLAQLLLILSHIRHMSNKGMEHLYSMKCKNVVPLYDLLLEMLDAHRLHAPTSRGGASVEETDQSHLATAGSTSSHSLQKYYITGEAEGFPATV
Experiment: cell-based or functional assay

B1: WBP2 Y192-231F phospho-defective double mutant, V5-tagged (other, not shown: small tags and cut ends)
chain: MALNKNHSEGGGVIVNNTESILMSYDHVELTFNDMKNVPEAFKGTKKGTVYLTPYRVIFLSKGKDAMQSFMMPFYLMKDCEIKQPVFGANYIKGTVKAEAGGGWEGSASYKLTFTAGGAIEFGQRMLQVASQASRGEVPSGAYGYSYMPSGAYVYPPPVANGMYPCPPGYPYPPPPPEFYPGPPMMDGAMGFVQPPPPPYPGPMEPPVSGPDVPSTPAAEAKAAEAAASAFYNPGNPHNVYMPTSQPPPPPYYPPEDKKTQ
ERα reporter activity (ERE-luciferase), loss of coactivator activity relative to vector and compared to WBP2: ~60%

From patent US20130273056A1 (NATIONAL UNIVERSITY OF SINGAPORE, published 2013)
